Measured values: the supplement of paper PMC6755084

B1: minF1; a variant is named by its letters at N, in order (parent)
chain: GAGACCGCAACTGAAAAGTTGTTNNNNAANNNNGGNTNNATTTCTGCACGTAGAAGCAAAAGGC

Variants of: B1
Assay: fraction ligated after 30 min (ligated reads / total reads); higher = more ligase activity
Conditions: with F1*subA RNA substrate (template-directed ligation), 42 °C
Protocol: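 Chip-synthesised pool of minF1 ligase ribozyme variants (single and double substitutions, single to quadruple deletions, bulge and P2 designed variants) was transcribed with T7 and reacted as a pool with excess substrate F1*subA for 30 min at 42 C in 50 mM EPPS pH 8.5, 25 mM MgCl2. Ligated and unligated RNAs were separated by PAGE, barcoded by RT and deep sequenced; fraction ligated = ligated reads / total reads, relative activity = FL / FL of wild-type minF1 (0.76); sequencing FL correlated with PAGE (R2 = 0.98). Sequences are the DNA template of the ribozyme.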

Variant | fraction ligated
AGAAGGATGTA T23A A29T | 0.00442
CGAAGGTGTGA T23A A29T | 0.000502
ATAGATGGGTT G34A G35T T37G A40G | 0.00103
AGAAGGATGTG T23A A29T | 0.00517
ATAGTGTGTGA | 0.0025
ATAATGGAGTT G34T T37G | 0.00161
ATAGATGTGTA | 0.00402
ATAGATGTGTG | 0.00629
CGAAGGATGTA T23A A29T | 0.0054
ATAGGATGTGA A28T A29G | 0.0105
ATAAGGATGTG | 0.00567
ATAAGGATGTA | 0.00287
TGAAGGTGTGA A29T | 0.00178
ATAGTGATTGA | 0.00291
ATAGATGGGTT G34T T37G A40G | 0.000495
ATAGATTGTGA | 0.00167
TGAAGGATGTG T23A A29T | 0.00766
ATAATGAGTGA | 0.00461
AGAAGGTGTGA A29T | 0.0036
ATAAGATGTGA A29T | 0.00321
ATAAGATGTGA A29G | 0.00765
ATAGATGATGA | 0.00363
AGAAGGTGTGA T23A A29T | 0.00188
ATAAGATGTGA | 0.00253

Variant | fraction ligated
ATAGGGATGTG | 0.00618
ATAGGGATGTA | 0.0024
AGAAGGAGTGA A29T | 0.00436
ATAAGGTGTGA | 0.00238
CGAAGGATGTA A29T | 0.00492
ATAATATGTGA | 0.00335
TGAAGGATTGA A29T | 0.0036
ATAGAGGTGTG | 0.00428
ATAGAGGTGTA | 0.00141
TGAAGGATGTA A29T | 0.00266
TGAAGGTGTGA T23A A29T | 0.00263
AGAAGGAGTGA T23A A29T | 0.00185
ATAATGATTGA | 0.00291
AGAAGGATTGA T23A A29T | 0.00594
ATAATGGAGTA G34T | 0.00307
ATAGATGGGTT G34A G35T T37G | 0.0013
TGAAGGATTGA T23A A29T | 0.00566
ATAGATGAGTA G34T | 0.0034
TGAAGATGTGA A28T A29G | 0.00314
ATAGTGGGTGA | 0.00334
ATAGTGGATGA | 0.00362
ATAAGGAGTGA | 0.000696
ATAGATGAGTG G34T | 0.00408
ATAATGTGTGA | 0.00221

Variant | fraction ligated
ATAGTGGAGTG | 0.00518
ATAGTGGAGTA | 0.00346
ATAGATATGTA | 0.00365
ATAGATATGTG | 0.013
AGAAGGATTGA T23C A29T | 0.00646
AGAAGGATTGA A29T | 0.00498
ATAGATGGTGA | 0.00397
ATAGTGGAGTG G34T | 0.0109
CGAAGGATGTG A29T | 0.0152
ATAGTGGTGTA | 0.0012
ATAGTGGTGTG | 0.00637
ATAGAGAGTGA | 0.000691
ATAGATGGGTG G34A | 0.00708
ATAGATGGGTG G34T | 0.00668
ATAGAGATGTG | 0.00764
ATAGAGATGTA | 0.00327
CGAAGATGTGA T23A A29G | 0.00107
CGAAGATGTGA T23A A29T | 0.00299
ATAGAGATTGA | 0.0019
AGAAGATGTGA T23A A28T A29G | 0.00449
AGAAGATGTGA T23C A29G | 0.00313
AGAAGATGTGA T23C A29T | 0.00701
ATAGATGGGTT G34A T37G A40G | 0
AGAAGATGTGA A28T A29G | 0.00743

Variant | fraction ligated
ATAAGGTGTGA A29T | 0.00316
ATAGGGTGTGA A29T | 0.00231
ATAGATGGGTT G34T T37G | 0.00071
TGAAGATGTGA T23A A29T | 0.00202
TGAAGATGTGA T23A A29G | 0.00128
ATAGTATGTGA | 0.00386
ATAGAGGAGTA G34T | 0.00281
ATAGGATGTGA A29T | 0.00303
ATAGGATGTGA A29G | 0.00633
ATAAGGATGTA A29T | 0.00345
ATAATGGATGA | 0.00189
CGAAGATGTGA A28T A29G | 0.00384
AGAAGATGTGA A29G | 0.00203
AGAAGATGTGA A29T | 0.00448
CGAAGGAGTGA A29T | 0.00331
ATAAGGATTGA | 0.0033
ATAGATGAGTT G34T T37G | 0.00193
ATAGAGGAGTT G34T T37G A40G | 0.00121
ATAATGATGTA | 0.00361
ATAATGATGTG | 0.00571
TGAAGGATGTA T23A A29T | 0.00285
CGAAGGATGTG T23A A29T | 0.0123
ATAGAGGATGA | 0.00219
ATAGATGTTGA | 0.00174

Variant | fraction ligated
ATAGTGGAGTT G34T T37G | 0.00164
ATAGAGGAGTT G34T T37G | 0.00132
AGAAGGAGTGA T23C A29T | 0.0019
ATAGAGGTTGA | 0.00247
ATAGAGGAGTG G34T | 0.0028
ATCAAAATGTG A28G | 0.00629
ATAGATGGGGT G34A G35T T37G A40T | 0.00172
ATAGTGGAGTT G34T T37G A40G | 0.000271
TGAAGGAGTGA T23A A29T | 0.00234
ATAATGGGTGA | 0.00329
ATAAGGATGTG A29T | 0.00947
ATAGGGAGTGA A29T | 0.00713
TGAAGATGTGA T23A A28T A29G | 0.00603
TGAAGGATGTG A29T | 0.00863
CGAAGATGTGA T23A A28T A29G | 0.00787
TGAAGGAGTGA A29T | 0.000652
ATAGTGGTTGA | 0.0023
ATAGATATTGA | 0.00398
ATAATGGAGTG G34T | 0.0113
ATAATGGTGTG | 0.00419
ATAATGGTGTA | 0.00235
ATAATGGAGTA | 0.00371
ATAATGGAGTG | 0.00646
CGAAGGATTGA A29T | 0.00943

Variant | fraction ligated
ATAGATGAGTG | 0.0071
ATAGATGAGTA | 0.00311
ATAGGATGTGA | 0.00396
ATAGAGGAGTA | 0.00256
ATAGAGGAGTG | 0.00449
AGAAGGATGTG A29T | 0.00505
AGAAGGTGTGA T23C A29T | 0.00383
ATCAAAAGTGA A28G | 0.00266
ATAGATGGGTA | 0.00171
ATAGATGGGTG | 0.00885
ATAAGGATTGA A29T | 0.00367
AGAAGGATGTA A29T | 0.00434
AGAAGGATGTA T23C A29T | 0.00442
ATAGTGATGTG | 0.00732
ATAGTGATGTA | 0.00203
ATAGATGAGTT G34T T37G A40G | 0.00153
ATAGTGAGTGA | 0.00282
AGAAGATGTGA T23A A29G | 0.00362
AGAAGATGTGA T23A A29T | 0.00161
AGAAGATGTGA T23C A28T A29G | 0.00411
ATAGAGGGTGA | 0.00176
ATAATGGAGTT G34T T37G A40G | 0.00113
ATAAGGAGTGA A29T | 0.00469
AGAAGGATGTG T23C A29T | 0.00819

Variant | fraction ligated
ATAGATGGGTT G34A T37G | 0.000508
ATAGGGATTGA | 0.00436
CGAAGGATTGA T23A A29T | 0.0076
TGAAGATGTGA A29T | 0.00283
TGAAGATGTGA A29G | 0.00286
CGAAGGTGTGA A29T | 0.00384
CGAAGATGTGA A29T | 0.00363
CGAAGATGTGA A29G | 0.00313
ATAGATAGTGA | 0.00268
ATAGATGGGTA G34T | 0.00288
ATAGATGGGTA G34A | 0.00325
CGAAGGAGTGA T23A A29T | 0.00498
ATCAAAATGTA A28G | 0.0033
ATAATGGTTGA | 0.00319
ATAGGGATGTA A29T | 0.00166
ATAGAATGTGA | 0.00417
ATAGAGTGTGA | 0.00554
ATAGGGTGTGA | 0.00288
ATAGGGATGTG A29T | 0.012
ATAGTGGAGTA G34T | 0.00645
ATAGGGATTGA A29T | 0.0025
ATAGGGAGTGA | 0.00238
ATAAGATGTGA A28T A29G | 0.0107
